Test results: the Human Domainome abundance scans (Beltran et al. 2025)

B1: Cyclin-F, residues 28 to 80; numbered along this chain, P41002 (parent)
chain: RNLTILSLPEDVLFHILKWLSVEDILAVRAVHSQLKDLVDNHASVWACASFQE

Variants of: B1
Assay: abundance fitness (aPCA) (normalised: wild type 0, dead -1); higher = more abundant; growth selection in yeast, the domain comes from the species named
Details: Homo sapiens

Abundance fitness of substitutions, site by site:
I16: K -1.11; A -0.901; E -0.773; T -0.805; W -0.823; C -0.341; L -0.646; S -0.664; P -0.673; Y -0.641; H -1.02; N -1.04; G -0.701; R -0.501; M -0.32
L20: E -0.982; W -0.747; T -0.923; N -0.759; G -0.605; K -0.838; A -0.667; D -0.675; F -1.01; R -0.853; C -0.42; V -0.484; Q -0.893; Y -0.75; I -0.673; P -0.893; S -0.705; H -0.812
V12: T -0.493; H -0.732; K -1.07; C -0.343; P -0.733; W -0.851; R -0.909; D -0.816; M -0.924; S -0.85; Q -0.747; L -0.281; G -0.764; A -0.816; F -1.02; I 0.033; Y -0.846; N -1.02
E23: L -0.856; T -0.477; S -0.186; G -0.48; H -0.358; W -0.577; C -0.627; R -0.001; K -0.105; M -0.802; N -0.319; Y -0.62; A -0.053; D 0.057; V -0.372; P -0.236
P9: T -0.69; R -0.692; N -0.882; M -1.04; H -0.949; A -0.778; F -0.621; Y -0.932; G -0.413; C -0.676; S -0.672; I -0.847; V -0.59; Q -0.735; K -0.818; E -0.646; D -0.541
D24: N -1.11; A -0.631; I -0.684; L -0.718; G -0.624; R -0.797; S -0.882; M -0.595; Y -0.544; Q -0.739; W -0.717; K -0.832; E -0.388; H -0.708; T -0.68; F -1.06; C -0.716; V -0.784; P -0.661
S21: I -0.405; C -0.311; W -0.824; H -0.334; G -0.226; M -0.815; P -0.047; T -0.126; Q -0.473; E -0.092; F -0.731; K -0.272; N -0.148; A -0.113; D 0.135; R -0.157; V -0.621; Y -0.566; L -0.855
L8: R -0.833; G -0.939; S -0.635; K -0.744; M -0.407; Q -0.925; A -0.509; C -0.993; T -0.651; N -0.755; V -0.915
L13: E -0.81; K -0.431; T -0.001; Y -0.306; S -0.67; G -0.692; R -0.633; W -0.204; M -0.138; F 0.091; Q -0.093; V -0.141; D -0.644; C -0.933
D11: V -0.269; M -0.488; Q -0.049; I -0.43; S 0.093; W -0.731; R -0.099; Y -0.556; F -0.823; P -0.132; H -0.384; N 0.046; A 0.028; G -0.104; K 0.269; E -0.153; C -0.18
V22: F -0.141; G -0.553; T -0.168; Y 0.02; Q -0.267; R -0.177; A -0.142; I 0.005; E -0.285; S -0.452; H -0.122; C -0.286; K -0.132; D -0.405; W -0.087
I25: P -0.806; D -0.83; R -0.534; T -0.703; L -0.33; S -0.783; E -0.809; A -0.602; M -0.346; Y -0.971; G -1.08; W -0.41; K -0.568; H -0.82; N -1.14; C -0.527; V -0.292
L26: M -0.183; F -0.424; G -0.451; D -0.961; C -0.256; I -0.023; V -0.452; S -0.5; T -0.396; R -0.169; K -0.043; Q -0.147; E -0.5; A -0.283; P -0.694
W19: N 0.223; V -0.226; G -0.273; S -0.057; L 0.293; C 0.229; R -0.154; D -0.137; H 0.257; K 0.218; P -0.458; Y 0.397; E 0.227; M 0.33; T -0.269
F14: T 0.061; W 0.347; R 0.056; G -0.293; S -0.158; V 0.198; D -0.762; M 0.181; Q -0.08; K 0.226; H -0.324; P -0.954; L 0.179; Y -0.153; A 0.132; E -0.074; C -0.162
S7: V -0.647; T -0.381; H -0.242; M -0.195; E -0.27; P -0.767; K -0.109; D 0.101; G -0.31; A -0.427; L -0.647; I -0.426; C -0.316; F -0.547; Q -0.232; N -0.118; Y -0.869; W -0.693
E10: P -0.357; R -0.054; V -0.524; H -0.166; S -0.233; T -0.35; I -0.576; A -0.208; D -0.225; W -0.737; L -0.646; C -0.585; F -0.449; M -0.558; K 0.24; N -0.589; Y -0.505; G -0.566
H15: T -0.455; P -0.731; D -0.408; Y -0.388; R 0.222; S -0.235; M -0.116; N 0.226; V -0.55; K 0.216; W -0.561; L -0.204; A -0.279; E -0.222; F -0.499; Q -0.356; C -0.091; I -0.21
L6: S -0.885; T -0.486; V -0.665; W -0.678; Y -0.423
L17: S -0.896; I 0.148; Q -0.782; N -0.926; R -0.774; C -0.223; V -0.169; H -0.678; D -0.868; A -0.781; E -1.06; G -0.547; T -0.63; F 0.056
K18: P -0.72; T -0.254; Y -0.505; Q -0.081; C -0.597; N -0.107; V -0.452; F -0.573; I -0.449; H -0.122; R -0.14; M -0.251; L -0.553; S -0.215; G -0.132; A -0.314; D -0.483; E -0.148
